Assay results: US20070116702A1, “Survival promoting NCAM binding and MCAM ligand binding compounds” (priority 2001, published 2007)

Columns and labels:
NCAM Ig1 domain = biological target: T1, NCAM Ig1 domain (Rattus norvegicus, UniProt P13596); test: Real-time biomolecular interaction analysis (BIAlite surface plasmon resonance), Ig1 applied to immobilised dendrimer peptides; type: binding; conditions: dendrimer peptides immobilised on sensor chip CM5, 25° C., HBS; two independent experiments
T1 construct: The Ig1 domain of NCAM was produced as a recombinant protein in Pichia pastoris; made in house; host or cells: Pichia pastoris strain His 4 GS-115 (pHIL-S1 plasmid)
Text: The Ig1 domain of NCAM was produced as a recombinant protein in Pichia pastoris. The cDNA fragment of rat NCAM was synthesised by PCR, and amplified cDNA was subcloned into an Xho I/Bam HI site of the pHIL-S1 plasmid (Invitrogen Corporation, San Diego, USA). An E. coli strain Top 10 F′ (Invitrogen Corporation, San Diego, USA) was used for transformation. The recombinant plasmid was linearised with Nsi I and used for transformation of Pichia pastoris strain His 4 GS-115 (Invitrogen Corporation, San Diego, USA). Transformation and selection was performed according to a Pichia Expression Kit manual supplied by the manufacturer. The recombinant protein was designated as Ig1 PP (Ig-like domain 1 produced in P. pastoris) The authenticity of Ig1 PP was secured by amino acid sequencing and MALDI-MS confirming the expected molecular weight of 11 kD. Cells were grown essentially according to the Pichia Expression Kit manual. After induction supernatant from growing cells was filtered through a […] filter, concentrated by ultrafiltration and purified by gel filtration using a Sephadex G-50 column (Pharmacia Biotech AB, Sweden) (Thomsen et al., 1996).
Real-time biomolecular interaction analysis was performed using a BIAlite instrument (Pharmacia Biosensor AB, Sweden). All experiments were performed at 25° C. using Hepes buffered saline (HBS: 10 mM Hepes pH 7.4, 150 mM NaCl, 3.4 mM EDTA, 0.005% v/v Surfactant P20 (Pharmacia Biosensor, Sweden) as running buffer. The flow rate was […]. Dendrimer peptides C3d, D3d and D4d (four peptide-monomers coupled to a backbone consisting of three lysines) were immobilised on a sensor chip CM5 (Pharmacia Biosensor AB, Sweden) using the following procedure: the chip was activated by […] 0.05 M N-hydroxysuccinimide, 0.2 M N-ethyl-N′-(dimethylaminopropyl)carbodiimide; peptides were immobilised using […] peptide solution in HBS at a concentration of 60 μg/ml; finally the chip was blocked by 35 μl 1 M ethanolamine hydrochloride pH 8.5. Binding of Ig1 to dendrimer peptides: […] of Ig1 or Ig1I at the indicated concentrations were applied. […]

Hippocampal cells = test: Aggregate cell cultures of hippocampal cells (aggregates counted after 24 h); type: cell-based, rat; conditions: ligand present during the aggregation of cells; quantified 24 h after seeding
Method: A variety of suitable fragments and variants of NCAM has been discussed above. To be able to identify candidate ligands capable of stimulating NCAM function, where the NCAM function means the function of the NCAM molecule, the inventors have established a simple cell culture system (aggregate cell cultures) that permits a quantitative evaluation of the effect of various ligands. Hippocampal cells are provided from rat embryos. The cells are grown in a defined medium and dissociated cells are seeded in microtiter plates. After 24 h, the, amount of aggregates are counted. Compounds to be tested are added to the cell suspension immediately before seeding of the cells in micro-wells. When NCAM Ig1 binding ligands are present during the aggregation of cells, smaller, but more numerous cell aggregates are seen when quantified 24 h after seeding of the cells. The inhibiting effect of the ligands results in a blockage of the formation of large aggregates from many small aggregates as the adhesion, properties of NCAM are blocked. Thus, small but more numerous cell aggregates are seen in the presence of active ligands.

[1] = system: cells presenting NCAM or NCAM ligands; test: Prevention of cell death (survival) of cells presenting NCAM or NCAM ligands; type: cell-based; conditions: general statement; data only in figures
Method: PC12 cells were differentiated by plating them in 96-well tissue culture plates in defined medium (DMEM) supplemented with NGF (50-100 ng/ml) and were normally used after 6-8 days of NGF treatment. NGF withdrawal was performed as follows: the medium was removed, and the cells were quickly rinsed twice with pre-warmed medium, and then re-fed with DMEM supplemented with C3d. After 2 days of incubation cells were assayed for cell survival by measuring reduction of a novel tetrazolium compound, MTS (Promega, USA), which is bioreduced by cells into a formazan that is soluble in tissue culture medium. The absorbance of the formazan at 490 nm was measured directly from 96 well assay plates without additional processing. The conversion of MTS into the aqueous soluble formazan was accomplished by dehydrogenase enzymes found in metabolically active cells. The quantity of formazan product as measured by the amount of 490 nm absorbance was directly proportional to the number of living cells in culture (Yao and Cooper, 1995; CellTiter 96 Aqueous non-radioactive cell proliferation assay, Promega, 1996; Eilers et al., 1998).
PC12 cells were plated in 96-well tissue culture plates in the absence of growth factors (serum starvation) for 6 days in DMEM supplemented with C3d and assayed for cell survival by reduction of MTS, as described above (Gollapudi and Oblinger, 1999; Williams and Doherty, 1999). […]

cells presenting NCAM = conditions: by activating a signalling pathway identical to that activated by homophilic NCAM binding; cited from earlier work

T1 sequence (P13596 20-111 limits assumed): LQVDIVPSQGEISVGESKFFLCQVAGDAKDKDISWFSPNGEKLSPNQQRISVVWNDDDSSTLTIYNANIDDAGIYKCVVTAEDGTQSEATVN

Row | Substance | binding to the NCAM Ig1 domain (NCAM Ig1 domain) | inhibition of aggregation of hippocampal cells (Hippocampal cells) | preventing cell death [1] | stimulation of outgrowth (cells presenting NCAM)
1 | D4d: Dendrimer of D4: four peptide-monomers coupled to a backbone consisting of three lysines (ARALNWGAKPK) | bind to the NCAM Ig1 domain | – | – | –
2 | C3d: Dendrimer of C3: four peptide-monomers coupled to a backbone consisting of three lysines (ASKKPKRNIKA) | bind to the NCAM Ig1 domain | – | – | –
3 | ASKKPKRNIKA (listed as Homo sapiens) [C3] | – | inhibited aggregation | capable of preventing cell death | stimulates outgrowth
4 | D3d: Dendrimer of D3: four peptide-monomers coupled to a backbone consisting of three lysines (AKKERQRKDTQ) | bind to the NCAM Ig1 domain | – | – | –
